Experimental data as given in patent US20060233785A1, “Immunointeractive molecules and uses thereof” (priority 2001, published 2006).

Assays:
[1] = assay type: physicochemical
Source text: Recombinant Hev b 6 (rHev b 6): The cDNA encoding Hev b 6 was cloned from latex RNA (Beezhold, unpublished). The deduced amino acid sequence of this clone is identical to that of the Hev b 6 clone pDHPROH 6 in Rozynek P et al., 1998, Clinical and Experimental Allergy 28:1418-1426 and differed at amino acid 126 (Thr versus Ala) from the deduced amino acid sequence of the Hev b 6 clone pDHPROH 1-2 (Genbank entry AJ003196.1). It differs at amino acids 109 (Pro versus Ser) and 161 (Leu versus Ile) from the deduced amino acid sequence of the Hev b 6 clone HEV1 (Genbank entry M36986.1), isolated by Broekaert W, Lee H, Kush A, Chua N-H, Raikhel N. Wound-induced accumulation of mRNA containing a hevein sequence in laticifers of rubber tree (Hevea brasiliensis). Proc Natl Acad Sci USA 1990; 87:7633-7637. The Hev b 6 cDNA was subcloned into the pPROEX-Hta vector (Invitrogen, CA, USA) by the polymerase chain reaction (PCR) following our standardised methods (Sutherland et al., 2002, supra). Primers HEVB6F (5′-[…]-3′) (SEQ ID NO:22) and HEVB6R (5′-[…]-3′) (SEQ ID NO:23) were used for the PCR. The plasmid construct was transformed into E. coli strain BL21-CodonPlus® (DE3)-RIL competent cells (Stratagene, CA, USA) by the heat shock procedure (Sambruk et al., 1989, supra). […]

[2] = system: Hev b 6-specific mAb 1A5.4; test: Western blotting of rHev b 6 forms with Hev b 6-specific mAb (Example 8); assay type: binding, mouse
Description: FIG. 6 is an image of sulphonation abolishing the IgE reactivity of rHev b 6. rHev b 6 (A) and sulphonated rHev b 6 (B) were resolved by 16% SDS-PAGE under non-reducing conditions. Gels were either stained with Coomassie Brilliant Blue (1) or transferred to nitrocellulose. Strips with transferred protein were incubated with the Hev b 6-specific mAb 1A5.4 and binding detected (2). Strips with transferred protein were also incubated with sera from two latex allergic, Hev b 6 sensitized subjects (3 and 4) and one non-latex-allergic, atopic subject (5). The presence or absence of IgE binding was then detected. […] Plates were coated with rHev b 6 and sulphonated rHev b 6 and the presence or absence of IgE-binding detected. As a positive control the Hev b 6-specific mAb 1A5 was used. NB indicates no binding of IgE was detected.
Four μg of rHev b 6 or sulphonated rHev b 6 were separated on 16% sodium dodecyl sulphate (SDS) polyacrylamide gels with 4% stacking gel. Electrophoresis was performed at 125V for 2 h on a Novex Xcell II Mini-Cell system (Novex, CA, USA). Proteins were visualized with Coomassie Brilliant Blue R-250 (Sigma). The separated proteins were electrophoretically transferred to nitro-cellulose membranes (BA 0.45μ, Schleicher and Schuell, Dassel, Germany) at 25V for 1 hr in transfer buffer. Membranes were blocked for 1 h at RT in 10% skim milk powder (SMP) in PBS, washed once in 0.05% Tween20/PBS and twice in PBS. Washed membranes were incubated for 1 hour at RT with either culture supernatant containing the Hev b 6-specific mAb 1A5.4, diluted 1 in 100 in 1% SMP/PBS or human serum, diluted 1 in 5 in 1% SMP/PBS. For mAb detection membranes were washed as above and incubated for 1 h at RT with goat HRP-conjugated anti-mouse Ig (Silenus), diluted 1 in 2000 in 1% SMP/PBS. For IgE detection, membranes were incubated for 1 h at RT with rabbit anti-human IgE (Dako, Denmark) at 1 in 1000 dilution, followed by swine anti-rabbit IgG-HRP conjugate (Promega) at 1 in 1000 dilution. After washing, the binding of 1A5.4 mAb and patient serum IgE to rHev b 6 was detected using hydrogen peroxide/diaminobenzidine solution.

[3] = Immunisation of mice with rHev b 6, serum ELISA; assay type: in vivo, BALB/c mice; conditions: eight mice; 20 μg intraperitoneally
Description: Monoclonal antibody production followed established protocols (Sutherland et al, 2002, supr; Goding, J. Monoclonal Antibodies: principles and practice 3rd ed. London: Academic Press. 492, 1996). Approval was obtained from the Monash University Animal Ethics Committee. Eight BALB/c mice were immunised with 20 μg rHev b 6 in 100 ill of PBS, intraperitoneally, three times at three weekly intervals. The first injection was given with Complete Freund's Adjuvant (100 μl; Sigma) and the two subsequent injections with Incomplete Freund's Adjuvant (100 μl; Sigma). Mice were finally boosted with 20 μg rHev b 6 in 200 μl PBS intraperitoneally 3 days before being sacrificed. Hybridomas were generated by fusing immune mouse spleen cells with murine myeloma cells (line X-63.Ag8.653; 17) and supernatants were screened for antibody to rHev b 6 and glove extract by performing a duplicate ELISA as described below. Positive hybridomas were expanded and cloned by limiting dilution.

[4] = reducing SDS-PAGE (data not shown)

B1: rHev b 6: recombinant Hev b 6 (prohevein) expressed in E. coli from pPROEX-HTa with 6-His tag (protein)
chain: EQCGRQAGGKLCPNNLCCSQWGWCGSTDEYCSPDHNCQSNCKDSGEGVGGGSASNVLATYHLYNSQDHGWDLNAASAYCSTWDANKPYSWRSKYGWTAFCGPVGAHGQSSCGKCLSVTNTGTGAKTTVRIVDQCSNGGLDLDVNVFRQLDTDGKGYERGHITVNYQFVDCGDSFNPLFSVMKSSVIN
modifications: left off: small tags and cut ends
notes: recombinant Hev b 6 (prohevein) expressed in E. coli from pPROEX-HTa with 6-His tag
In the case of B1, the solubility [1] is reported as “insoluble”, the “Hev b 6-specific mAb reactivity in Western blotting” value (“Hev b 6-specific mAb reactivity” below) ([2]; non-reducing SDS-PAGE) is reported as “reactive” and the “Hev b 6-specific mAb reactivity” value [2, 4] is reported as “reactive”. For the same molecule, the “number of immunised mice whose serum reacted with glove extract by ELISA” value [3] was “seven” and the “number of immunised mice with strong polyclonal immune response to rHev b 6” value [3] was “eight”.

B2: sulphonated rHev b 6: purified rHev b 6 sulphonated in sulphonation buffer to improve solubility (protein)
chain: B1 chain
modifications: left off: small tags and cut ends
In the case of B2, the solubility [1] is reported as “increased markedly”, the “Hev b 6-specific mAb reactivity” value ([2]; non-reducing SDS-PAGE) is reported as “reactive” and the “Hev b 6-specific mAb reactivity” value [2, 4] is reported as “reactive”.
